In test [1] the target is T1, human CD47 (human, UniProt Q08722 19-139).
T1 construct: extracellular domain; also called CD47 ECD
Briefly: SPR; protein made in mammalian cell.

Test [2] deals with T1, human CD47. Briefly: SPR, 25 C, 1:1 Langmuir fit.
For test [3], the target named is T1, human CD47. Briefly: SPR, 25 C, 1:1 Langmuir fit. This is another data set of the same source.
Test [4] concerns the target T2, mouse CD47 (mouse, UniProt Q61735 19-140, limits assumed).
T2 construct: also called mouse CD47 protein
T2 sequence (looked up): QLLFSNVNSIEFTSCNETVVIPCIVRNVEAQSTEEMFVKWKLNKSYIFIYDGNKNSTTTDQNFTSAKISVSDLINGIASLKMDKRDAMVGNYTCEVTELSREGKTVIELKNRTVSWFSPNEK
Briefly: SPR, 25 C, 1:1 Langmuir fit.

In test [5] the target is T3, rat CD47 (rat, UniProt P97829 19-140, limits assumed).
T3 sequence (looked up): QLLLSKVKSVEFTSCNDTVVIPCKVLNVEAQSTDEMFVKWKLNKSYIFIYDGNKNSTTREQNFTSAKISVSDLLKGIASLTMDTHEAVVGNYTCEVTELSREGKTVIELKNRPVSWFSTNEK
Briefly: SPR (Biacore T100 and ProteOn XPR36).

In test [6] the target is T1, human CD47. Briefly: SPR (Biacore T100 and ProteOn XPR36).
The target of test [7] is T2, mouse CD47. Briefly: SPR (Biacore T100 and ProteOn XPR36).
The target in test [8] is T1, human CD47. Briefly: SPR as in Example 1.
The target of test [9] is T1, human CD47. Briefly: SPR; protein made in E. coli.

T1 sequence (Q08722 19-139 limits assumed): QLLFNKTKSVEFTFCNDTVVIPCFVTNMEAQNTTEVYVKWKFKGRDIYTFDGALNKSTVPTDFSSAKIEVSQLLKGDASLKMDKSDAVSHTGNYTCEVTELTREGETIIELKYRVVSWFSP

B1: SIRP-α D1 variant polypeptide of SEQ ID NO: 71 (receptor)
chain: EEELQVIQPDKSVLVAAGETATLRCTATSLFPVGPIQWFRGAGPGRELIYNQRQGPFPRVTTVSDLTKRNNMDFSIRIGNITPADAGTYYCVKFRKGSPDDVEFKSGAGTELSVRAKPS
notes: engineered SIRP-α D1 domain
Turning to B1, the Kd in test [1] and in [2] was 4.94 nM each time.

B2: SIRP-α D1 variant polypeptide of SEQ ID NO: 210 (receptor)
chain: EEELQIIQPDKSVLVAAGETATLRCTITSLFPVGPIQWFRGAGPGRELIYNQRDGPFPRVTTVSDTTKRNNMDFSIRIGAITPADAGTYYCVKFRKGIPDDVEFKSGAGTELSVRAKPS
For B2, the dissociation constant (Kd) turned out to be 6.79 nM in [3]; 6.01 nM in test [4]; 4.59 nM in test [5]; 1.65 nM in [6]; 0.612 nM in test [7].

B3: SIRP-α D1 variant polypeptide of SEQ ID NO: 206 (receptor)
chain: EEELQIIQPDKSVLVAAGETATLRCTITSLRPVGPIQWFRGAGPGRELIYNQRDGPFPRVTTVSDTTKRNNMDFSIRIGAITPADAGTYYCVKFRKGIPDDVEFKSGAGTELSVRAKPS
As for B3, the equilibrium dissociation constant (Kd) in test [3] was found to be 5.26 nM; in [4], 3.33 nM; in test [5], 1.49 nM; in test [6] it was 0.967 nM; in test [7], 0.288 nM.

B4: SIRP-α D1 variant polypeptide of SEQ ID NO: 73 (receptor)
chain: EEELQVIQPDKSVLVAAGETATLRCTITSLFPVGPIQWFRGAGPGRELIYNQREGPFPRVTTVSDTTKRNNMDFSIRIGNITPADAGTYYCVKFRKGSPDDVEFKSGAGTELSVRAKPS
notes: engineered SIRP-α D1 domain
For the molecule B4, the Kd in test [1] and in [2] was 0.448 nM throughout.

B5: SIRP-α D1 variant polypeptide of SEQ ID NO: 209 (receptor)
chain: EEELQIIQPDKSVLVAAGETATLRCTITSLYPVGPIQWFRGAGPGRELIYNQRDGPFPRVTTVSDTTKRNNMDFSIRIGAITPADAGTYYCVKFRKGIPDDVEFKSGAGTELSVRAKPS
As to B5, the dissociation constant (Kd) in test [3] is 4.46 nM; in [4] it was 4.11 nM; in [5] it was 2.26 nM; in [6], 1.01 nM; in test [7], 0.371 nM.

B6: SIRP-α D1 variant polypeptide of SEQ ID NO: 74 (receptor)
chain: EEELQIIQPDKSVLVAAGETATLRCTITSLFPVGPIQWFRGAGPGRELIYNQREGPFPRVTTVSDTTKRNNMDFSIRIGNITPADAGTYYCVKFRKGSPDDVEFKSGAGTELSVRAKPS
notes: engineered SIRP-α D1 domain
On to B6, for which the dissociation constant (Kd) in test [1] and in test [2] was 0.276 nM throughout.

B7: SIRP-α D1 variant polypeptide of SEQ ID NO: 72 (receptor)
chain: EEELQIIQPDKSVLVAAGETATLRCTITSLFPVGPIQWFRGAGPGRELIYNQREGPFPRVTTVSDLTKRNNMDFSIRIGNITPADAGTYYCVKFRKGSPDDVEFKSGAGTELSVRAKPS
notes: engineered SIRP-α D1 domain
Regarding B7, the Kd in [1] and in test [2] was 0.738 nM in each case.

B8: SIRP-α D1 variant polypeptide of SEQ ID NO: 86 (receptor)
chain: EEELQIIQPDKSVLVAAGETATLRCTITSLFPVGPIQWFRGAGPGRVLIYNQRQGPFPRVTTVSDTTKRNNMDFSIRIGNITPADAGTYYCIKFRKGSPDDVEFKSGAGTELSVRAKPS
notes: engineered SIRP-α D1 domain
In the case of B8, the dissociation constant (Kd) in test [3] was 0.0144 nM; in test [4], 43 nM.

B9: SIRP-α D1 variant polypeptide of SEQ ID NO: 204 (receptor)
chain: EEELQIIQPDKSVLVAAGETATLRCTITSLRPVGPIQWFRGAGPGRELIYNQRDGPFPRVTTVSDTTKRNNMDFSIRIGAITPADAGTYYCVKFRKGSPDDVEFKSGAGTELSVRAKPS
Take B9: the Kd came to 3.49 nM in test [3]; 5.21 nM in [4]; 3.42 nM in test [5]; 0.653 nM in test [6]; 0.448 nM in [7].

B10: SIRP-α D1 variant fused to Fc variant, SEQ ID NO: 97 (Fc fusion)
chain: EEELQVIQPDKSVLVAAGETATLRCTATSLFPVGPIQWFRGAGPGRELIYNQRQGPFPRVTTVSDLTKRNNMDFSIRIGNITPADAGTYYCVKFRKGSPDDVEFKSGAGTELSVRAKPSDKTHTCPPCPAPEAAGAPSVFLFPPKPKDTLMISRTPEVTCVVVDVSHEDPEVKFNWYVDGVEVHNAKTKPREEQYASTYRVVSVLTVLHQDWLNGKEYKCKVSNKALPAPIEKTISKAKGQPREPQVYTLPPSREEMTKNQVSLTCLVKGFYPSDIAVEWESNGQPENNYKTTPPVLDSDGSFFLYSKLTVDKSRWQQGNVFSCSVMHEALHNHYTQKSLSLSPGK
Take B10: the dissociation constant Kd turned out to be 1.55 nM in test [3] and 1.09 nM in [8].

B11: SIRP-α D1 variant fused to Fc variant, SEQ ID NO: 100 (Fc fusion)
chain: EEELQVIQPDKSVLVAAGETATLRCTATSLFPVGPIQWFRGAGPGRELIYNQREGPFPRVTTVSDLTKRNNMDFSIRIGAITPADAGTYYCVKFRKGSPDDVEFKSGAGTELSVRAKPSDKTHTCPPCPAPEAAGAPSVFLFPPKPKDTLMISRTPEVTCVVVDVSHEDPEVKFNWYVDGVEVHNAKTKPREEQYASTYRVVSVLTVLHQDWLNGKEYKCKVSNKALPAPIEKTISKAKGQPREPQVYTLPPSREEMTKNQVSLTCLVKGFYPSDIAVEWESNGQPENNYKTTPPVLDSDGSFFLYSKLTVDKSRWQQGNVFSCSVMHEALHNHYTQKSLSLSPGK
As for B11, the figures for the Kd in test [3], in test [4] and in [8] were 2.69 nM, 63.2 nM and 1.79 nM, respectively.

B12: SIRP-α D1 variant fused to Fc variant, SEQ ID NO: 104 (Fc fusion)
chain: EEELQIIQPDKSVLVAAGETATLRCTITSLFPVGPIQWFRGAGPGRELIYNQREGPFPRVTTVSDTTKRNNMDFSIRIGAITPADAGTYYCVKFRKGSPDDVEFKSGAGTELSVRAKPSDKTHTCPPCPAPEAAGAPSVFLFPPKPKDTLMISRTPEVTCVVVDVSHEDPEVKFNWYVDGVEVHNAKTKPREEQYASTYRVVSVLTVLHQDWLNGKEYKCKVSNKALPAPIEKTISKAKGQPREPQVYTLPPSREEMTKNQVSLTCLVKGFYPSDIAVEWESNGQPENNYKTTPPVLDSDGSFFLYSKLTVDKSRWQQGNVFSCSVMHEALHNHYTQKSLSLSPGK
Regarding B12, the Kd in test [3] was found to be 0.0919 nM; in [4], 8.04 nM.

B13: SIRP-α D1 variant polypeptide of SEQ ID NO: 54 (receptor)
chain: EEELQVIQPDKSVSVAAGESAILHCTVTSLFPVGPIQWFRGAGPARELIYNQRQGPFPRVTTVSESTKRENMDFSISISNITPADAGTYYCVKFRKGSPDTEFKSGAGTELSVRAKPS
notes: engineered SIRP-α D1 domain
As to B13, the Kd in test [9] and in test [2] was 2.7 nM throughout.

B14: SIRP-α D1 variant polypeptide of SEQ ID NO: 59 (receptor)
chain: EEELQIIQPDKSVSVAAGESAILHCTITSLFPVGPIQWFRGAGPARVLIYNQKQGPFPRVTTVSETTKRENMDFSISISNITPADAGTYYCIKFRKGSPDTEFKSGAGTELSVRAKPS
notes: engineered SIRP-α D1 domain
Consider B14, for which the Kd in [9] and in test [2] was 14 nM throughout.

B15: SIRP-α D1 variant polypeptide of SEQ ID NO: 57 (receptor)
chain: EEELQIIQPDKSVSVAAGESAILHCTITSLIPVGPIQWFRGAGPARVLIYNQRQGPFPRVTTVSETTKRENMDFSISISNITPADAGTYYCIKFRKGSPDTEFKSGAGTELSVRAKPS
notes: engineered SIRP-α D1 domain
B15: the Kd in test [9] and in [2] was 0.36 nM throughout.

B16: SIRP-α D1 variant polypeptide of SEQ ID NO: 60 (receptor)
chain: EEELQIIQPDKSVSVAAGESAILHCTITSLFPVGPIQWFRGAGPARVLIYNQREGPFPRVTTVSETTKRENMDFSISISNITPADAGTYYCIKFRKGSPDTEFKSGAGTELSVRAKPS
notes: engineered SIRP-α D1 domain
Turning to B16, the dissociation constant Kd in test [9] and in test [2] was 0.38 nM throughout.

B17: SIRP-α D1 variant polypeptide of SEQ ID NO: 56 (receptor)
chain: EEELQIIQPDKSVSVAAGESAILHCTVTSLFPVGPIQWFRGAGPARVLIYNQRQGPFPRVTTVSETTKRENMDFSISISNITPADAGTYYCIKFRKGSPDTEFKSGAGTELSVRAKPS
notes: engineered SIRP-α D1 domain
With B17, the dissociation constant Kd in test [9] and in test [2] was 0.2 nM in each case.

B18: SIRP-α D1 variant polypeptide of SEQ ID NO: 61 (receptor)
chain: EEELQIIQPDKSVSVAAGESAILHCTITSLFPVGPIQWFRGAGPARVLIYNQRQGHFPRVTTVSETTKRENMDFSISISNITPADAGTYYCIKFRKGSPDTEFKSGAGTELSVRAKPS
notes: engineered SIRP-α D1 domain
Regarding B18, the dissociation constant (Kd) in test [9] and in test [2] was 0.38 nM each time.

B19: SIRP-α D1 variant polypeptide of SEQ ID NO: 58 (receptor)
chain: EEELQIIQPDKSVSVAAGESAILHCTITSLFPVGPIQWFRGAGPARELIYNQRQGPFPRVTTVSETTKRENMDFSISISNITPADAGTYYCIKFRKGSPDTEFKSGAGTELSVRAKPS
notes: engineered SIRP-α D1 domain
Consider B19, for which the dissociation constant (Kd) in test [9] and in [2] was 0.16 nM in each case.

B20: SIRP-α D1 variant polypeptide of SEQ ID NO: 62 (receptor)
chain: EEELQIIQPDKSVSVAAGESAILHCTITSLFPVGPIQWFRGAGPARVLIYNQRQGPFPRVTTVSESTKRENMDFSISISNITPADAGTYYCIKFRKGSPDTEFKSGAGTELSVRAKPS
notes: engineered SIRP-α D1 domain
B20: the Kd in [9] and in [2] was 0.13 nM in each case.

B21: SIRP-α D1 variant polypeptide of SEQ ID NO: 63 (receptor)
chain: EEELQIIQPDKSVSVAAGESAILHCTITSLFPVGPIQWFRGAGPARVLIYNQRQGPFPRVTTVSETTKRENMDFSISISNITPADAGTYYCVKFRKGSPDTEFKSGAGTELSVRAKPS
notes: engineered SIRP-α D1 domain
As for B21, the Kd in test [9] and in [2] was 0.089 nM each time.

The values above are taken from US20200239543A1 (ALX ONCOLOGY, published 2020).
